Measurements published in patent publication US20210145935A1.

Experiments:
[1] = biological target: H3N2 pseudotyped lentiviral particles (H3 from A/Denmark/70/03, N2 from A/Texas/50/2012) (influenza A virus H3N2 A/Denmark/70/03; influenza A virus H3N2 A/Texas/50/2012); assay: cell-based or functional assay
[2] = biological target: H1N1 pseudotyped lentiviral particles (H1 and N1 from swine H1N1 A/California/04/09) (influenza A virus H1N1 A/California/04/09); assay: cell-based or functional assay

Sequence of recombinant vaccinia virus complement control protein (VCP) (P68638 20-263): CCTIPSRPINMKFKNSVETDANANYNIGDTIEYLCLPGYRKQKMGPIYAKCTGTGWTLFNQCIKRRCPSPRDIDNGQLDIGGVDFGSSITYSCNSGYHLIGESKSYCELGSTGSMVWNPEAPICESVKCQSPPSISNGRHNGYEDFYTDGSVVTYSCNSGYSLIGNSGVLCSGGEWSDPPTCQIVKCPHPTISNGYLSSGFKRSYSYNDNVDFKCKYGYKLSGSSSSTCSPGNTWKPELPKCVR

Substance “recombinant vaccinia virus complement control protein (VCP) (from UniProt P68638 20-263)” has a luciferase reporter activity of transduced MDCK cells, 40 µg/ml protein [1] of 30 % increase and a luciferase reporter activity of transduced MDCK cells, 40 µg/ml protein [2] of 45 % reduction.
